Consider 21 molecules from patent publication US20220275049A1, “ANTIGENIC POLYPEPTIDES AND METHODS OF USE THEREOF” (AGENUS INC., priority 2019, published 2022).

Square brackets hold non-standard residues; d marks the D form. Ends that are not written are not given here. pT = C[C@@H](OP(=O)(O)O)[C@H](N)C(=O)O; pS = N[C@@H](COP(=O)(O)O)C(=O)O

One experiment deals with biotinylated HLA-A*02:01 with β2m (human). Nature of the experiment: AlphaScreen, peptide titrated on biotinylated HLA + b2m. The note with it: remark: other sources report otherwise.
As to RTL[pS]HISEA [RTLsHISEA], the Kd amounted to 157 nM.
Same read-out and setting: the result for RQA[pS]IELPSMAV [RQAsIELPSMAV] reads 14.8 nM; that for GPRSA[pS]LL[pS]L [GPRSAsLLsL], 500 nM.
On the same count and under the same terms, the result for RQA[pS]IELPSM [RQAsIELPSM] reads 20.4 nM.
On the same count and under the same terms, as for KLIDRTE[pS]L [KLIDRTEsL], the figure is 260 nM; as for SMTR[pS]PPRV [SMTRsPPRV], 701 nM; as for GLLG[pS]PVRA [GLLGsPVRA], 431 nM.
On to SLFGG[pS]VKL [SLFGGsVKL], for which the Kd was 53.9 nM.
As to VLL[pS]PVPEL [VLLsPVPEL], the Kd is 150 nM.
Same read-out and setting: as for VLY[pS]PQMAL [VLYsPQMAL], the figure is 40.5 nM.
For the molecule RVA[pS]PTSGV [RVAsPTSGV], the Kd was 242 nM.

A further experiment addresses biotinylated HLA-B*07:02 with β2m (human). Described as above. The note with it: remark: other sources report otherwise.
As to EPR[pS]PSHSM [EPRsPSHSM], the Kd was 199 nM.
On the same count and under the same terms, as for GPRSASLL[pS]L [GPRSASLLsL], the figure is 47.1 nM; as for TPR[pS]PPLGL [TPRsPPLGL], 75.5 nM.
As to GPRSA[pS]LL[pS]L [GPRSAsLLsL], the Kd is 50 nM.
Take RVR[pS]PTRSP [RVRsPTRSP]: the Kd was determined as 551 nM.
The same measure, in the same setting: the result for RPT[pS]RLNRL [RPTsRLNRL] reads 117 nM.
The same measure, in the same setting: as for TPR[pS]PPLGLI [TPRsPPLGLI], the figure is 91 nM.
On the same count and under the same terms, as for RPRPV[pS]PSSL [RPRPVsPSSL], the figure is 218 nM; as for GPRSA[pS]LLSL [GPRSAsLLSL], 34.1 nM; as for QPR[pT]PSPLVL [QPRtPSPLVL], 199 nM.
RPS[pS]LPDL [RPSsLPDL]: the Kd turned out to be 369 nM.
Turning to RVA[pS]PTSGV [RVAsPTSGV], the Kd was determined as 227 nM.

Another experiment addresses biotinylated HLA-C*07:01 with β2m (human). Described as above. Conditions: remark: other sources report otherwise.
In the case of RTL[pS]HISEA [RTLsHISEA], the Kd was 380 nM.
